Measurements from EP0480381A1.

What was measured:
[1] = target: rat endothelin receptor (rat); experiment: displacement of [125I-Tyr13]endothelin-1 by unlabelled peptide on COS-7 cells transfected with prETR-7
[2] = target: rat endothelin receptor (rat); experiment: cell-based or functional assay

Substance: endothelin-2 (from UniProt P20800 49-69) (peptide)
- binding affinity [1]: 2 nM
- increase of calcium concentration in cytoplasm (fura-2), EC50 [2]: 0.02 nM
